Values joined by “and” are separate entries in the source; they are usually repeats but may differ in a detail not shown here. Equal entries are not always repeated.
B1: Arginase, O25949 (parent)
chain: MILVGLEAELGASKRGTDKGVRRLREALSATHGDVIKGMQTITQERCVLYKEFRYAKNFEDYYLFCKENLIPCMKEVFEKKEFPLILSSEHANMFGIFQAFRSVHKDKKIGILYLDAHADIHTAYDSDSKHIHGMPLGMVLNRVRSGFNRMSESEEKAWQKLCSLGLEKGGLEIDPKCLVYFGVRSTEQSERDVIRELQIPLFSVDAIRENMQEVVQKTKESLKAVDIIYLSLDLDIMDGKLFTSTGVRENNGLSFDELKQLLGLLLESFKDRLKAVEVTEYNPTVSIKHNNEEEKQVLEILDLIINSCKIKDKKHSFARSY

Variants of: B1
Conditions: Helicobacter pylori (strain ATCC 700392 / 26695); pH 7.2; Thermal; CD; Tris-HCl 20 mM; transition: 2; reversible: yes; structure 4G3H; whole UniProt chain shown

Row | Variant | Tm | change of melting temperature, mutant - wild type (higher = more stable)
1 | MILVGLEAELGASKRGTDKGVRRLREALSATHGDVIKGMQTITQERCVLYKEFRYAKNFEDYYLFCKENLIPCMKEVFEKKEFPLILSSEHANMFGIFQAFRSVHKDKKIGILYLDAHADIHTAYASDSKHIHGMPLGMVLNRVRSGFNRMSESEEKAWQKLCSLGLEKGGLEIDPKCLVYFGVRSTEQSERDVIRELQIPLFSVDAIRENMQEVVQKTKESLKAVDIIYLSLDLDIMDGKLFTSTGVRENNGLSFDELKQLLGLLLESFKDRLKAVEVTEYNPTVSIKHNNEEEKQVLEILDLIINSCKIKDKKHSFARSY [D126A] | 61 °C | -7 °C
2 | MILVGLEAELGASKRGTDKGVRRLREALSATHGDVIKGMQTITQERCVLYKEFRYAKNFEDYYLFCKENLIPCMKEVFEKKEFPLILSSEHANMFGIFQAFRSVHKDKKIGILYLDAHADIHTAYDSDSKHIHGMPLGMVLNRVRSGFNRMSESEEKAWQKACSLGLEKGGLEIDPKCLVYFGVRSTEQSERDVIRELQIPLFSVDAIRENMQEVVQKTKESLKAVDIIYLSLDLDIMDGKLFTSTGVRENNGLSFDELKQLLGLLLESFKDRLKAVEVTEYNPTVSIKHNNEEEKQVLEILDLIINSCKIKDKKHSFARSY [L162A] | – | -2.7 °C and -7 °C
3 | MILVGLEAELGASKRGTDKGVRRLREALSATHGDVIKGMQTITQERCVLYKEFRYAKNFEDYYLFCKENLIPCMKEVFEKKEFPLILSSEHANMFGIFQAFRSVHKDKKIGILYLDAHADIHTAYDSDSKHIHGMPLGMVLNRVRSGFNRMSASEEKAWQKLCSLGLEKGGLEIDPKCLVYFGVRSTEQSERDVIRELQIPLFSVDAIRENMQEVVQKTKESLKAVDIIYLSLDLDIMDGKLFTSTGVRENNGLSFDELKQLLGLLLESFKDRLKAVEVTEYNPTVSIKHNNEEEKQVLEILDLIINSCKIKDKKHSFARSY [E153A] | 69.8 °C | -0.2 °C
4 | MILVGLEAELGASKRGTDKGVRRLREALSATHGDVIKGMQTITQERCVLYKEFRYAKNFEDYYLFCKENLIPCMKEVFEKKEFPLILSSEHANMFGIFQAFRSVHKDKKIGILYLDAHADIHTAYDSDSKHIHGMPLGMVLNRVRSGFNRMSESEEKAFQKLCSLGLEKGGLEIDPKCLVYFGVRSTEQSERDVIRELQIPLFSVDAIRENMQEVVQKTKESLKAVDIIYLSLDLDIMDGKLFTSTGVRENNGLSFDELKQLLGLLLESFKDRLKAVEVTEYNPTVSIKHNNEEEKQVLEILDLIINSCKIKDKKHSFARSY [W159F] | 64.8 °C and 59.9 °C | -5.2 °C and -8.1 °C
5 | MILVGLEAELGASKRGTDKGVRRLREALSATHGDVIKGMQTITQERCVLYKEFRYAKNFEDYYLFCKENLIPCMKEVFEKKEFPLILSSEHANMFGIFQAFRSVHKDKKIGILYLDAHADIHTAYDSDSKHIHGMPLGMVLNRVRSGFNRMSESEEKAAQKLCSLGLEKGGLEIDPKCLVYFGVRSTEQSERDVIRELQIPLFSVDAIRENMQEVVQKTKESLKAVDIIYLSLDLDIMDGKLFTSTGVRENNGLSFDELKQLLGLLLESFKDRLKAVEVTEYNPTVSIKHNNEEEKQVLEILDLIINSCKIKDKKHSFARSY [W159A] | 51 °C | -17 °C
6 | MILVGLEAELGASKRGTDKGVRRLREALSATHGDVIKGMQTITQERCVLYKEFRYAKNFEDYYLFCKENLIPCMKEVFEKKEFPLILSSEHANMFGIFQAFRSVHKDKKIGILYLDAHADIHTAYDSDSKHIHGMPLGMVLNRVRSGFNRMSESEAKAWQKLCSLGLEKGGLEIDPKCLVYFGVRSTEQSERDVIRELQIPLFSVDAIRENMQEVVQKTKESLKAVDIIYLSLDLDIMDGKLFTSTGVRENNGLSFDELKQLLGLLLESFKDRLKAVEVTEYNPTVSIKHNNEEEKQVLEILDLIINSCKIKDKKHSFARSY [E156A] | 59 °C | -9 °C
7 | MILVGLEAELGASKRGTDKGVRRLREALSATHGDVIKGMQTITQERCVLYKEFRYAKNFEDYYLFCKENLIPCMKEVFEKKEFPLILSSEHANMFGIFQAFRSVHKDKKIGILYLDAHADIHTAYDSDSKHIHGMPLGMVLNRVRSGFNRMSESEEKAWQKLCALGLEKGGLEIDPKCLVYFGVRSTEQSERDVIRELQIPLFSVDAIRENMQEVVQKTKESLKAVDIIYLSLDLDIMDGKLFTSTGVRENNGLSFDELKQLLGLLLESFKDRLKAVEVTEYNPTVSIKHNNEEEKQVLEILDLIINSCKIKDKKHSFARSY [S164A] | 70.7 °C | 0.7 °C
8 | MILVGLEAELGASKRGTDKGVRRLREALSATHGDVIKGMQTITQERCVLYKEFRYAKNFEDYYLFCKENLIPCMKEVFEKKEFPLILSSEHANMFGIFQAFRSVHKDKKIGILYLDAHADIHTAYDSDSKHIHGMPLGMVLNRVRSGFNRMSESEEKAWAKLCSLGLEKGGLEIDPKCLVYFGVRSTEQSERDVIRELQIPLFSVDAIRENMQEVVQKTKESLKAVDIIYLSLDLDIMDGKLFTSTGVRENNGLSFDELKQLLGLLLESFKDRLKAVEVTEYNPTVSIKHNNEEEKQVLEILDLIINSCKIKDKKHSFARSY [Q160A] | 64.4 °C and 62.8 °C | -5.6 °C and -5.2 °C
9 | MILVGLEAELGASKRGTDKGVRRLREALSATHGDVIKGMQTITQERCVLYKEFRYAKNFEDYYLFCKENLIPCMKEVFEKKEFPLILSSEHANMFGIFQAFRSVHKDKKIGILYLDAHADIHTAYDSDSKHIHGMPLGMVLNRVRSGFNRMSESEEAAWQKLCSLGLEKGGLEIDPKCLVYFGVRSTEQSERDVIRELQIPLFSVDAIRENMQEVVQKTKESLKAVDIIYLSLDLDIMDGKLFTSTGVRENNGLSFDELKQLLGLLLESFKDRLKAVEVTEYNPTVSIKHNNEEEKQVLEILDLIINSCKIKDKKHSFARSY [K157A] | 57.7 °C | -10.3 °C

— FireProtDB (doi:10.1021/bi301421v)
